B1: SLN12068 VHH-Fc (Fc fusion)
VHH: EVQLVESGGGLVQPGGSLRLSCAAFEYYYCMGWFRQAPGKGLEGVASFDTSDGSKYYADSVKGRFTISKDNSKNTLYLQMNSLRAEDTAVYYCAARPFYVGGTCLPRLTDFSIWGQGTLVTVSS
notes: not shown: its position and linker are not fixed for the humanized single VHH
B2: SLN12075 VHH-Fc (Fc fusion)
VHH: EVQLVESGGGLVQPGGSLRLSCAASAYIYSSYCMGWFRQAPGKGLERVSVINSDGRTSYADSVKGRFTISRDNSKNTLYLQMNSLRAEDTAVYYCAAVILPPTDGMEYSCNYPAAEYNYWGQGTLVTVSS
notes: as for B1
B3: SLN12083 VHH-Fc (Fc fusion)
VHH: EVQLVESGGGLVQPGGSLRLSCAASEYTSSSYCMAWIRQAPGKGLEGVAAIDTDGSTSYTDSVKGRFTISRDNSKNTLYLQMNSLRAEDTAVYYCAAAPWLLAYGDYCVTRPDFGEWGQGTLVTVSS
notes: as for B1
B4: SLN0042 VHH-OVA-His (VHH)
chain: DVQLVESGGGSVQAGGSLRLSCAASGYTRSFTCMGWFRQAPGKEREGVATINPGTGSTYYADSVKGRFSISQDNAKNTVYLQMNTLKPEDTAMYYCAATQLFGCGSLAKSLFGYWGQGTLVTVSSGSIGAASMEFCFDVFKELKVHHANENIFYCPIAIMSALAMVYLGAKDSTRTQINKVVRFDKLPGFGDSIEAQCGTSVNVHSSLRDILNQITKPNDVYSFSLASRLYAEERYPILPEYLQCVKELYRGGLEPINFQTAADQARELINSWVESQTNGIIRNVLQPSSVDSQTAMVLVNAIVFKGLWEKAFKDEDTQAMPFRVTEQESKPVQMMYQIGLFRVASMASEKMKILELPFASGTMSMLVLLPDEVSGLEQLESIINFEKLTEWTSSNVMEERKIKVYLPRMKMEEKYNLTSVLMAMGITDVFSSSANLSGISSAESLKISQAVHAAHAEINEAGREVVGSAEAGVDAASVSEEFRADHPFLFCIKHIATNAVLFFGRCVSP
notes: Tested as recombinant VHH-OVA-His; not shown: His tag
B5: SLN0057 VHH-OVA-His (VHH)
chain: HVQLVESGGGSVQAGGSLRLSCAASGHTYSIYYMAWFRQAPGKEREGVAVIYRGGSTTYADSAKGRFTVSQDNGKNTVYLQMNSLKAEDTAMYYCAAAHVLHVSSLLPGGYPYWGQGTLVTVSSGSIGAASMEFCFDVFKELKVHHANENIFYCPIAIMSALAMVYLGAKDSTRTQINKVVRFDKLPGFGDSIEAQCGTSVNVHSSLRDILNQITKPNDVYSFSLASRLYAEERYPILPEYLQCVKELYRGGLEPINFQTAADQARELINSWVESQTNGIIRNVLQPSSVDSQTAMVLVNAIVFKGLWEKAFKDEDTQAMPFRVTEQESKPVQMMYQIGLFRVASMASEKMKILELPFASGTMSMLVLLPDEVSGLEQLESIINFEKLTEWTSSNVMEERKIKVYLPRMKMEEKYNLTSVLMAMGITDVFSSSANLSGISSAESLKISQAVHAAHAEINEAGREVVGSAEAGVDAASVSEEFRADHPFLFCIKHIATNAVLFFGRCVSP
notes: as for B4
B6: SLN0059 VHH-OVA-His (VHH)
chain: HVQLVESGGGSVQSGGSLRLSCAASGITISNYYMTWFRQAPGKEREGVAGLTRADVTLYADSVKGRFTISRDNAKNTLYLQMNSLKPEDTAMYYCAAADRFRVGLREADFSAWGQGTQVTVSSGSIGAASMEFCFDVFKELKVHHANENIFYCPIAIMSALAMVYLGAKDSTRTQINKVVRFDKLPGFGDSIEAQCGTSVNVHSSLRDILNQITKPNDVYSFSLASRLYAEERYPILPEYLQCVKELYRGGLEPINFQTAADQARELINSWVESQTNGIIRNVLQPSSVDSQTAMVLVNAIVFKGLWEKAFKDEDTQAMPFRVTEQESKPVQMMYQIGLFRVASMASEKMKILELPFASGTMSMLVLLPDEVSGLEQLESIINFEKLTEWTSSNVMEERKIKVYLPRMKMEEKYNLTSVLMAMGITDVFSSSANLSGISSAESLKISQAVHAAHAEINEAGREVVGSAEAGVDAASVSEEFRADHPFLFCIKHIATNAVLFFGRCVSP
notes: as for B4
B7: SLN0062 VHH-OVA-His (VHH)
chain: QVQLVESGGGSVQSGGSLRLSCAASGYTFSRNCMGWFRQTPGKERERVATVYPGGGSTYYADSVKGRFTFSQDNAKNAIYLQMNTLKPEDTGMYYCAASRRIWSCGSGAGSYDYWGQGTQVTVSSGSIGAASMEFCFDVFKELKVHHANENIFYCPIAIMSALAMVYLGAKDSTRTQINKVVRFDKLPGFGDSIEAQCGTSVNVHSSLRDILNQITKPNDVYSFSLASRLYAEERYPILPEYLQCVKELYRGGLEPINFQTAADQARELINSWVESQTNGIIRNVLQPSSVDSQTAMVLVNAIVFKGLWEKAFKDEDTQAMPFRVTEQESKPVQMMYQIGLFRVASMASEKMKILELPFASGTMSMLVLLPDEVSGLEQLESIINFEKLTEWTSSNVMEERKIKVYLPRMKMEEKYNLTSVLMAMGITDVFSSSANLSGISSAESLKISQAVHAAHAEINEAGREVVGSAEAGVDAASVSEEFRADHPFLFCIKHIATNAVLFFGRCVSP
notes: as for B4
B8: SLN0064 VHH-OVA-His (VHH)
chain: HVQLVESGGGSVQAGGSLRLSCAASGYSVSWFCMGWFRQAPGLEREGVAVIDVDSIARYGDSVKGRFTISQGNSKDTVYLQMNGLKPEDTAMYYCAAKTERQCRWNWMDWRTYDYPHWGQGTQVTVSSGSIGAASMEFCFDVFKELKVHHANENIFYCPIAIMSALAMVYLGAKDSTRTQINKVVRFDKLPGFGDSIEAQCGTSVNVHSSLRDILNQITKPNDVYSFSLASRLYAEERYPILPEYLQCVKELYRGGLEPINFQTAADQARELINSWVESQTNGIIRNVLQPSSVDSQTAMVLVNAIVFKGLWEKAFKDEDTQAMPFRVTEQESKPVQMMYQIGLFRVASMASEKMKILELPFASGTMSMLVLLPDEVSGLEQLESIINFEKLTEWTSSNVMEERKIKVYLPRMKMEEKYNLTSVLMAMGITDVFSSSANLSGISSAESLKISQAVHAAHAEINEAGREVVGSAEAGVDAASVSEEFRADHPFLFCIKHIATNAVLFFGRCVSP
notes: as for B4
B9: SLN0043 VHH-OVA-His (VHH)
chain: DVQLVESGGGSVQAGGSLRLSCAASGVTWSRDWMAWFRQAPGKEREGVAAFVPSIGSTFYVDSVKGRFTISQDNAKNTLFLQMNSLKPEDTAMYYCATDPLWGRKYGGSWSDPSEYNYWGQGTQVTVSSGSIGAASMEFCFDVFKELKVHHANENIFYCPIAIMSALAMVYLGAKDSTRTQINKVVRFDKLPGFGDSIEAQCGTSVNVHSSLRDILNQITKPNDVYSFSLASRLYAEERYPILPEYLQCVKELYRGGLEPINFQTAADQARELINSWVESQTNGIIRNVLQPSSVDSQTAMVLVNAIVFKGLWEKAFKDEDTQAMPFRVTEQESKPVQMMYQIGLFRVASMASEKMKILELPFASGTMSMLVLLPDEVSGLEQLESIINFEKLTEWTSSNVMEERKIKVYLPRMKMEEKYNLTSVLMAMGITDVFSSSANLSGISSAESLKISQAVHAAHAEINEAGREVVGSAEAGVDAASVSEEFRADHPFLFCIKHIATNAVLFFGRCVSP
notes: as for B4
B10: SLN0066 VHH-OVA-His (negative control VHH) (VHH)
chain: HVQLVESGGGSVQAGGSLRLSCVASGIGHGFNNNCMGWFRQAPGKEREGVAAVYTGGGTPYYADSVKGRFTLSQDNAKNTLYLQMNGLDPEDTAMYYCVADIWRTYRCGAGDTTVFDYRGQGTLVTVSSGSIGAASMEFCFDVFKELKVHHANENIFYCPIAIMSALAMVYLGAKDSTRTQINKVVRFDKLPGFGDSIEAQCGTSVNVHSSLRDILNQITKPNDVYSFSLASRLYAEERYPILPEYLQCVKELYRGGLEPINFQTAADQARELINSWVESQTNGIIRNVLQPSSVDSQTAMVLVNAIVFKGLWEKAFKDEDTQAMPFRVTEQESKPVQMMYQIGLFRVASMASEKMKILELPFASGTMSMLVLLPDEVSGLEQLESIINFEKLTEWTSSNVMEERKIKVYLPRMKMEEKYNLTSVLMAMGITDVFSSSANLSGISSAESLKISQAVHAAHAEINEAGREVVGSAEAGVDAASVSEEFRADHPFLFCIKHIATNAVLFFGRCVSP
notes: not shown: His tag

Experiments:
human properdin = target: T1, human properdin (human, UniProt P27918 28-469, biotinylated); experiment: ELISA on biotinylated truncated variants of human properdin, VHH-Fc at 10 µg/ml
T1 construct: Recombinant, made in house; tag not described; In the hemolysis assays the target is the properdin of human serum; also called human properdin-biotin; biotin human Properdin
T1 sequence (P27918 28-469 limits assumed): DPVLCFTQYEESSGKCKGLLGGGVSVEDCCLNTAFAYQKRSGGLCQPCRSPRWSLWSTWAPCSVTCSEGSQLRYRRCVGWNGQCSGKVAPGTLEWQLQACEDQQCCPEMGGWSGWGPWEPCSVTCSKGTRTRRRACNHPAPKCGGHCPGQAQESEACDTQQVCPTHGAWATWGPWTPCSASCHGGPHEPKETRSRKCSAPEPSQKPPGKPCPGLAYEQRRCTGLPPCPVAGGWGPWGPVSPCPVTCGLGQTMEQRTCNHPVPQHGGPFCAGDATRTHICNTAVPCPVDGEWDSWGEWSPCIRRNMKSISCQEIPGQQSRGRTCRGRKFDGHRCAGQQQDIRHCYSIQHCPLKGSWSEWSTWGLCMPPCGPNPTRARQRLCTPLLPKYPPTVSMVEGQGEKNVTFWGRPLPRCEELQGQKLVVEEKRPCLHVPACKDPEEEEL
Method: 96-well immunoplates were coated with 100 μl/well 1 μg/ml streptavidin and incubate at 4° C. overnight. Wells were washed with PBST for 3 times and blocked with 200 μl of 1% BSA/PBS at RT for 1 h. […] Plates were washed with PBST for 3 times, 100 μl/well 10 μg/ml VHH-Fcs were added and incubate at RT for 1 h. Plates were washed with PBST for 3 times and add 100 μl goat anti-human Fc-HRP (Sigma, A0170) diluted 1/5000 in 1% BSA/PBST to each well and incubate at RT for 1 h. Plates were then washed as before and add 100 μl TMB substrate and incubate at RT for 15 min. 100 μl per well stop solution was added to stop the reaction, and the plates were read with microplate reader at 450 nm.

[1] = target: T2, human transferrin (Sigma T3309) (human, UniProt P02787 20-698); experiment: flow cytometry on HEK293F-hTfR1 cells with human transferrin, pH 7.4; grade by % binding (+++ ≥ 15%)
T2 construct: mature; same polypeptide; also called native human transferrin; hTf
T2 sequence (P02787 20-698): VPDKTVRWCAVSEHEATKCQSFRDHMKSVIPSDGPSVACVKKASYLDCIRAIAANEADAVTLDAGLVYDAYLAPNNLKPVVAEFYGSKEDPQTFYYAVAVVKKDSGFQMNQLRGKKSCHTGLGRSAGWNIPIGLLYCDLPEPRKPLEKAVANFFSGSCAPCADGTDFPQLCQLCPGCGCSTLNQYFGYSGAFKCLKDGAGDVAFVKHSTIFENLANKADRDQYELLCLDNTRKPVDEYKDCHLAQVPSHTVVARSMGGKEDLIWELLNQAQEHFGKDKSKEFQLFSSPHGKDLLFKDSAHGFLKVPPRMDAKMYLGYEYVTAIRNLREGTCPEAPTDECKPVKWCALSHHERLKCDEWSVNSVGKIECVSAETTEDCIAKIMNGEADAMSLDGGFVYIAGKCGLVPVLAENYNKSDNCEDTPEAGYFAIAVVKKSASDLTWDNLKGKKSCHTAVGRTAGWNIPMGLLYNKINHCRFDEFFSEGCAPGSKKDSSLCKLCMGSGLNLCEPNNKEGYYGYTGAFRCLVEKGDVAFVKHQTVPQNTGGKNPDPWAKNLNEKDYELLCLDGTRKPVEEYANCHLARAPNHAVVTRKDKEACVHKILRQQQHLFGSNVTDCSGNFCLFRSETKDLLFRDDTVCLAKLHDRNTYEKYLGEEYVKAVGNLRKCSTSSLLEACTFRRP
Method: (§1) HEK293F-hTfR1 cells were prepared by transfecting hTfR1-expressing plasmid, with a GFP tag, into HEK293F cells. Stable pool was used for this assay. Briefly, the engineered HEK293F cells expressing hTfR1 were cultured with OPM-293 CD05 medium at 37° C., with 8% CO₂ and saturated humidity in cell shaker. […] The cells were washed twice by centrifugation at 300 g for 5 min at 4° C., before rabbit anti-OVA antibodies and a secondary anti-rabbit IgG-AF647 (all prepared in blocking buffer). The cells were scanned with CytoFLEX (Beckman).

[2] = target: T2, human transferrin (Sigma T3309); experiment: flow cytometry on HEK293F-hTfR1 cells with human transferrin, pH 6.0
Method: as §1

[3] = target: T3, human transferrin receptor 1 on HEK293F-hTfR1 cells (human, UniProt P02786 1-760); experiment: flow cytometry on HEK293F-hTfR1 cells with or without transferrin
T3 construct: whole, on cells
T3 sequence (P02786 whole entry): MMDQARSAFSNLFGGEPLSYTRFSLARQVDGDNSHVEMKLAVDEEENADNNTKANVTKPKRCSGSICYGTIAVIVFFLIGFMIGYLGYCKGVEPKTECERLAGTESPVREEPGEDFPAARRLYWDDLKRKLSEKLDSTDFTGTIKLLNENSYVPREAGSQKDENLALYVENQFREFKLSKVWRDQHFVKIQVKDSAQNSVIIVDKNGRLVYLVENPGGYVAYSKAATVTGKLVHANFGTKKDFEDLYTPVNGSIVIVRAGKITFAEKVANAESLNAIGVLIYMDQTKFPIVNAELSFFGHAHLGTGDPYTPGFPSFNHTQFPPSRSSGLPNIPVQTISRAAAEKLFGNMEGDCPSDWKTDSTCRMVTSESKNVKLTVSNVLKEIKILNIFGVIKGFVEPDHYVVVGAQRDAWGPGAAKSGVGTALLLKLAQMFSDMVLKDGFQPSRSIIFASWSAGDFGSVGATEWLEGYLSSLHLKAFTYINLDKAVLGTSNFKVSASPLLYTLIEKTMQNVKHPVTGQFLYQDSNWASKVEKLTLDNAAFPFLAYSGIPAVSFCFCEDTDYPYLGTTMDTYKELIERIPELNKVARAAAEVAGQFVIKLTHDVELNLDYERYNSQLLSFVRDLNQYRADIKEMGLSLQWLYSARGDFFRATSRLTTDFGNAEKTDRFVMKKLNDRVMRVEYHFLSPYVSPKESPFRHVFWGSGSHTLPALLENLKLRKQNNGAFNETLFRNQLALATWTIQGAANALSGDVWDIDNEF
Method: as §1

[4] = target: T2, human transferrin (Sigma T3309); experiment: flow cytometry on HEK293F-hTfR1 cells with human transferrin, pH 7.4
Method: as §1

[5] = target: T2, human transferrin (Sigma T3309); experiment: flow cytometry on HEK293F-hTfR1 cells with human transferrin, pH 6.0; grade by % binding (10% > + ≥ 5%); non-specific binding column also +
Method: as §1

[6] = target: T2, human transferrin (Sigma T3309); experiment: flow cytometry on HEK293F-hTfR1 cells with human transferrin, pH 7.4; grade by % binding (10% > + ≥ 5%)
Method: as §1

Row | Binder | binding result (human properdin) | percent binding (flow cytometry, VHH/Tf on hTfR1-overexpressing cells, pH 6.0) [2] [%] | percent binding (flow cytometry, VHH/Tf on hTfR1-overexpressing cells, pH 7.4) [4] [%] | percent binding (flow cytometry, VHH/Tf on hTfR1-overexpressing cells, pH 6.0) [5] [%] | other results
1 | B1 | binds | – | – | – | –
2 | B2 | binds | – | – | – | –
3 | B3 | binds | – | – | – | –
4 | B4 | – | < 5 | – | – | percent binding (flow cytometry, VHH/Tf on hTfR1-overexpressing cells, pH 7.4) [1]: ≥ 15%; binding result [3]: no binding (tested: 10 µg/mL)
5 | B5 | – | – | < 5 | 5 to 10 | –
6 | B6 | – | – | < 5 | 5 to 10 | –
7 | B7 | – | – | – | 5 to 10 | percent binding (flow cytometry, VHH/Tf on hTfR1-overexpressing cells, pH 7.4) [6]: 5 to 10%
8 | B8 | – | – | – | 5 to 10 | percent binding (flow cytometry, VHH/Tf on hTfR1-overexpressing cells, pH 7.4) [6]: 5 to 10%
9 | B9 | – | < 5 | – | – | binding result [3]: no binding (tested: 10 µg/mL)
10 | B10 | – | < 5 | < 5 | – | –

Source: patent US20250034239A1 (LINNO PHARMACEUTICALS, published 2025)
